Assay [1] concerns the target CD8 on human CD8+ cells (PBMC) (human). Kind of assay: capture of unlabelled PBMC on a pipette tip of Strep-Tactin-agarose loaded with 1.5 ug anti-CD8 Fab-TST, elution with D-biotin; flow cytometry with CD8-PE and CD3-APC; 7,6% before selection [continued]. (In general: Flow cytometry measures light scatter and fluorescence of single cells or particles in a stream.)
For assay [2] the target is unchanged. Kind of assay: capture of PBMC pre-incubated with 1.5 ug anti-CD8 Fab-TST / multimerized soluble Strep-Tactin on Biotin-agarose; flow cytometry with CD8-PE and CD3-APC.
Assay [3] has the same target. Kind of assay: capture of PBMC pre-incubated with 1.5 ug anti-CD8 Fab-TST / multimerized soluble Strep-Tactin on Biotin-agarose, elution with D-biotin; flow cytometry with CD8-PE and CD3-APC [continued].
Assay [4] has the same target. Kind of assay: capture of unlabelled PBMC on a pipette tip of Strep-Tactin-agarose loaded with 1.5 ug anti-CD8 Fab-TST; flow cytometry with CD8-PE and CD3-APC; 7,6% before selection [continued].

Sequence of CD8 on human CD8+ cells (PBMC) (human) (P01732 22-235): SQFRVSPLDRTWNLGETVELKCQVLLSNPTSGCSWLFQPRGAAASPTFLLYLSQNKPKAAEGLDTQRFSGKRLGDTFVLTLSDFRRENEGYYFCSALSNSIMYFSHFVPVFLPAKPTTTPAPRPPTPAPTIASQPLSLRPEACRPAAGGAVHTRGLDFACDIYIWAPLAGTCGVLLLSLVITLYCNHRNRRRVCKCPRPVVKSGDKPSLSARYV

In the case of “anti-CD8 Fab-fragment carrying the Twin-Strep-Tag at the C-terminus of the heavy chain (catalogue number 6-8003, IBA GmbH)”, the Q1-UL, % CD8 PE-positive cells in the positive (biotin-eluted) fraction in assay [1] turned out to be 58.7%; in assay [3] it was 72.4%. In addition, the Q1-UL, % CD8 PE-positive cells in the wash through fraction in assay [2] was 0.9%; in assay [4], 2.4%.

The record behind these values is patent US20170052176A1.
